Measured values: patent US5985836A, “Alpha-1 proteinase inhibitor binding peptides” (Bayer Corporation, priority 1998, dated 1999)
One block for each substance: values may come before it. Ends that are not written are not given here.

Assays:
[1] = target: T1, apolipoprotein alpha-1 (Apo A-1) (Homo sapiens, UniProt P02647); assay: Purification from Effluent II+III, Apo A-1 mass balance; type: binding; settings: 1 ml Eff. II+III, 4° C.; for Mass Protein per Eluate Fraction, 2% Acetic Acid: * as in Tables 4, 5 (below detection limit)
T1 construct: Eff; II+III is a process intermediate in the Cohn plasma fractionation process; tissue Bayer Corporation (Clayton, N.C.); host or cells: plasma fraction: Cohn Effluent II+III
T1 sequence (P02647 19-267): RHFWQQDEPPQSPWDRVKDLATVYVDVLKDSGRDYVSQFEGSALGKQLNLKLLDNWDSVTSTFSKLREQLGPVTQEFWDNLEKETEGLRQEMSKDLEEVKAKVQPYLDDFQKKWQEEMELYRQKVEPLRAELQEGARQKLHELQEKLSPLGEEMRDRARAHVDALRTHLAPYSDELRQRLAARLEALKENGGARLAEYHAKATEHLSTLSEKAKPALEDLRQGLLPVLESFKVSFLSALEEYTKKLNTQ
Method: (§1) Sequences 1-11 and 15 were assayed with Effluent II+III (Eff. II+III). Eff. II+III is a process intermediate in the Cohn plasma fractionation process. The feed stream contains 20% (by volume) ethanol, 20-25 mg/ml hSA and approximately 1 mg/ml AlPI. The stream also contains other proteins including anti-thrombin III (AT3), immunoglobin G (IgG), immunoglobin A (IgA), apolipoprotein alpha-1 (Apo A-1), transferrin (Trf), haptoglobin (Hpt), and alpha-1 acid glycoprotein (AAG) at concentrations ranging from 0.1-1 mg/ml.
(§2) The columns were assayed using the same technique as the hSA+AlPI experiments, allowing for a 10 minute residence time followed by a constant flow rate of 865 μl/min with step elutions of 1M NaCl, 3M NaCl, and 2% acetic acid. All experiments were conducted at 4° C. The mass balances for the injection of 1 ml Eff. […] The AlPI was enriched from 3% of the total protein in the feed to upwards of 50% in the acid eluate.

A1PI [2] = target: T2, A1PI (Homo sapiens, UniProt P01009); assay: Purification of A1PI from Effluent II+III on peptide column, A1PI mass balance; type: binding; settings: A1PI, 1 ml Eff. II+III, 4° C.; for Mass Protein per Eluate Fraction, 1M NaCl / Mass Protein per Eluate Fraction, 2% Acetic Acid / Mass Protein per Eluate Fraction, Flow: * as in Tables 4, 5 (below detection limit)
T2 construct: Human plasma is currently the only approved source of therapeutic AlPI
T2 sequence (P01009 25-418): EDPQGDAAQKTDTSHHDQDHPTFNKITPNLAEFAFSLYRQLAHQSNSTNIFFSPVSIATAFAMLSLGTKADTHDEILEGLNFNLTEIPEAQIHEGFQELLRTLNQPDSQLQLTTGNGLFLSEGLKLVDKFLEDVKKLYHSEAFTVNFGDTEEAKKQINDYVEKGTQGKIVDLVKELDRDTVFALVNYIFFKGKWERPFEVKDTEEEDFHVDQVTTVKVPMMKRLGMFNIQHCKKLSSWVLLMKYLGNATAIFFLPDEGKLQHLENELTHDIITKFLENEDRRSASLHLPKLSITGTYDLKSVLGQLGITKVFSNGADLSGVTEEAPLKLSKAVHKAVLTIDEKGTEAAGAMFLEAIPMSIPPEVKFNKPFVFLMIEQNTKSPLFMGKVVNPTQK
Method: as §1, §2

A1PI [3] = target: T2, A1PI; assay: A1PI binding on peptide-resin column, injection of 1 mg A1PI in equilibration buffer; settings: 1 mg A1PI in equilibration buffer; for Percent A1PI Eluted by Fraction Based on Absorbance at 280 nm, 1M NaCl / Percent A1PI Eluted by Fraction Based on Absorbance at 280 nm, 2% Acetic Acid / Percent A1PI Eluted by Fraction Based on Absorbance at 280 nm, Flowthrough: 4° C.; for Percent A1PI Eluted by Fraction, 1M NaCl / Percent A1PI Eluted by Fraction, 2% Acetic Acid / Percent A1PI Eluted by Fraction, Flowthrough: 20° C.
Method in brief: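 Percent of total eluted A1PI per fraction (flowthrough, NaCl steps, 2% acetic acid) determined by A280 integration or immunonephelometry. Columns of peptide-derivatized A-Totda-Toyopearl resin (0.1 mmole/g) received 1 mg A1PI at 4 °C or 20 °C, flow 865 or 523 μl/min.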

A1PI [4] = target: T2, A1PI; assay: A1PI purification from 5 mg hSA + 1 mg A1PI on peptide column, A1PI mass balance; type: binding; settings: for Mass AlPI Eluted in Acid Eluate: nephelometry; for Mass Protein per Eluate Fraction, 1M NaCl / Mass Protein per Eluate Fraction, 2% Ac. Acid / Mass Protein per Eluate Fraction, Flow / Percent Eluted by Fraction, 1M NaCl / Percent Eluted by Fraction, 2% Ac. Acid / Percent Eluted by Fraction, 3M NaCl / Percent Eluted by Fraction, Flow / Mass Protein per Eluate Fraction, 3M NaCl: A1PI, 5 mg hSA + 1 mg A1PI; for Mass Protein per Eluate Fraction, 1M NaCl / Mass Protein per Eluate Fraction, 2% Ac. Acid / Mass Protein per Eluate Fraction, Flow / Mass Protein per Eluate Fraction, 3M NaCl: * Below detection limit; for Percent Eluted by Fraction, 1M NaCl / Percent Eluted by Fraction, 2% Ac. Acid / Percent Eluted by Fraction, 3M NaCl / Percent Eluted by Fraction, Flow: relative to total eluted
Method: Confirmatory binding assays were performed in a column chromatographic format on a microbore HPLC using individual peptide sequences synthesized directly onto the Toyopearl 650 M Chelate resin which had been modified with Totda followed by an alanine residue (A-Totda-Toyopearl), at a final substitution density of 0.1 mmole/g resin. The resin was packed into 0.4×5 cm columns (Thomson, Springfield, Va.) and tested on the Michrom HPLC system (Michrom BioResources, Auburn, Calif.). The elution program for all trials utilized the following method. The column was pre-equilibrated with equilibration buffer (as above). 1 ml of sample was injected and allowed sufficient time to flowthrough the column using equilibration buffer. The column was then washed with step elutions of 1M NaCl and 3M NaCl in equilibration buffer. The column was exposed to equilibration buffer with 0.1M NaCl. Any remaining protein was eluted with elution buffer (2% by volume glacial acetic acid in water).
A Gilson FC204 fraction collector at the HPLC outlet collected individual eluates for further analysis. Fractions collected from the 2% acetic acid eluates were neutralized with 2M Tris, pH 10.5 to bring the pH to neutrality. The protein samples were reconstituted in equilibration buffer unless otherwise stated. The samples were analyzed by the integration of the absorbance at 280 nm or by immunonephelometry. The specific method of determination is presented for each figure.
Columns were assayed with a mixture of 5 mg human serum albumin (hSA)+1 mg AlPI at 4° C. (Table 4, Seq. ID 1-11, 15, 17) and 20° C. (Table 5, Seq. ID 1-10, 13, 15, 17). The chromatography method was modified to provide for a 10 minute residence time of sample in the column by decreasing the flow to 17 μl/min (10 cm/hr) upon injection. Following the incubation, the flow was set at 865 μl/min (413 cm/hr) for the step elutions of 1M NaCl, 3M NaCl, and 2% acetic acid. The mass balances presented are based upon immunonephelometry. The Percent Eluted value is protein-specific and based on the amount of the protein eluted in a […]

Immunoglobulin A (IgA) = assay: Purification from Effluent II+III, IgA mass balance; type: binding, human; settings: 1 ml Eff. II+III, 4° C.
Method: as §1, §2

Immunoglobulin G (IgG) = assay: Purification from Effluent II+III, IgG mass balance; type: binding, human; settings: 1 ml Eff. II+III, 4° C.
Method: as §1, §2

[5] = * as in Tables 4, 5 (below detection limit)

Percent Eluted by Fraction, 1M NaCl [1]: 0%
Percent Eluted by Fraction, 2% Acetic Acid [1]: 100%
Percent Eluted by Fraction, 3M NaCl [1]: 0%
Percent Eluted by Fraction, Flow [1]: 0%
Mass Protein per Eluate Fraction, 2% Acetic Acid [1]: 0.35 mg
Percent Eluted by Fraction, 1M NaCl (A1PI [2]): 22%
Percent Eluted by Fraction, 2% Acetic Acid (A1PI [2]): 14%
Percent Eluted by Fraction, 3M NaCl (A1PI [2]): 0%
Percent Eluted by Fraction, Flow (A1PI [2]): 64%
Mass Protein per Eluate Fraction, 1M NaCl (A1PI [2]): 0.20 mg
Mass Protein per Eluate Fraction, 2% Acetic Acid (A1PI [2]): 0.13 mg
Mass Protein per Eluate Fraction, Flow (A1PI [2]): 0.59 mg
Percent A1PI Eluted by Fraction Based on Absorbance at 280 nm, 1M NaCl (A1PI [3]): 88%
Percent A1PI Eluted by Fraction Based on Absorbance at 280 nm, 2% Acetic Acid (A1PI [3]): 12%
Percent A1PI Eluted by Fraction Based on Absorbance at 280 nm, Flowthrough (A1PI [3]): 0%
Percent A1PI Eluted by Fraction, 1M NaCl (A1PI [3]): 88%
Percent A1PI Eluted by Fraction, 2% Acetic Acid (A1PI [3]): 12%
Percent A1PI Eluted by Fraction, Flowthrough (A1PI [3]): 0%
Mass AlPI Eluted in Acid Eluate (A1PI [4]; 250 μg AlPI injected with 5 mg hSA, 20° C.): 0.07 mg
Mass AlPI Eluted in Acid Eluate (A1PI [4]; 500 μg AlPI injected with 5 mg hSA, 20° C.): 0.15 mg
Mass AlPI Eluted in Acid Eluate (A1PI [4]; 1000 μg AlPI injected with 5 mg hSA, 20° C.): 0.39 mg
Mass Protein per Eluate Fraction, 1M NaCl (A1PI [4]; 4° C.): 0.50 mg
Mass Protein per Eluate Fraction, 2% Ac. Acid (A1PI [4]; 4° C.): 0.11 mg
Mass Protein per Eluate Fraction, Flow (A1PI [4]; 4° C.): 0.01 mg
Percent Eluted by Fraction, 1M NaCl (A1PI [4]; 4° C.): 80%
Percent Eluted by Fraction, 2% Ac. Acid (A1PI [4]; 4° C.): 18%
Percent Eluted by Fraction, 3M NaCl (A1PI [4]; 4° C.): 0%
Percent Eluted by Fraction, Flow (A1PI [4]; 4° C.): 2%
Mass Protein per Eluate Fraction, 1M NaCl (A1PI [4]; 20° C.): 0.42 mg
Mass Protein per Eluate Fraction, 2% Ac. Acid (A1PI [4]; 20° C.): 0.45 mg
Mass Protein per Eluate Fraction, 3M NaCl (A1PI [4]; 20° C.): 0.00 mg
Percent Eluted by Fraction, 1M NaCl (A1PI [4]; 20° C.): 48%
Percent Eluted by Fraction, 2% Ac. Acid (A1PI [4]; 20° C.): 52%
Percent Eluted by Fraction, 3M NaCl (A1PI [4]; 20° C.): 0%
Percent Eluted by Fraction, Flow (A1PI [4]; 20° C.): 0%
Substance: RLWRYG
Percent Eluted by Fraction, 1M NaCl (Immunoglobulin A (IgA)): 0%
Percent Eluted by Fraction, 2% Acetic Acid (Immunoglobulin A (IgA)): 31%
Percent Eluted by Fraction, 3M NaCl (Immunoglobulin A (IgA)): 0%
Percent Eluted by Fraction, Flow (Immunoglobulin A (IgA)): 69%
Mass Protein per Eluate Fraction, 2% Acetic Acid (Immunoglobulin A (IgA); [5]): 0.09 mg
Mass Protein per Eluate Fraction, Flow (Immunoglobulin A (IgA); [5]): 0.19 mg
Percent Eluted by Fraction, 1M NaCl (Immunoglobulin G (IgG)): 0%
Percent Eluted by Fraction, 2% Acetic Acid (Immunoglobulin G (IgG)): 0%
Percent Eluted by Fraction, 3M NaCl (Immunoglobulin G (IgG)): 0%
Percent Eluted by Fraction, Flow (Immunoglobulin G (IgG)): 100%
Mass Protein per Eluate Fraction, Flow (Immunoglobulin G (IgG); [5]): 0.27 mg

Percent Eluted by Fraction, 1M NaCl [1]: 0%
Percent Eluted by Fraction, 2% Acetic Acid [1]: 100%
Percent Eluted by Fraction, 3M NaCl [1]: 0%
Percent Eluted by Fraction, Flow [1]: 0%
Mass Protein per Eluate Fraction, 2% Acetic Acid [1]: 0.31 mg
Percent Eluted by Fraction, 1M NaCl (A1PI [2]): 5%
Percent Eluted by Fraction, 2% Acetic Acid (A1PI [2]): 81%
Percent Eluted by Fraction, 3M NaCl (A1PI [2]): 0%
Percent Eluted by Fraction, Flow (A1PI [2]): 14%
Mass Protein per Eluate Fraction, 1M NaCl (A1PI [2]): 0.06 mg
Mass Protein per Eluate Fraction, 2% Acetic Acid (A1PI [2]): 0.92 mg
Mass Protein per Eluate Fraction, Flow (A1PI [2]): 0.16 mg
Percent A1PI Eluted by Fraction Based on Absorbance at 280 nm, 1M NaCl (A1PI [3]): 64%
Percent A1PI Eluted by Fraction Based on Absorbance at 280 nm, 2% Acetic Acid (A1PI [3]): 36%
Percent A1PI Eluted by Fraction Based on Absorbance at 280 nm, Flowthrough (A1PI [3]): 0%
Percent A1PI Eluted by Fraction, 1M NaCl (A1PI [3]): 75%
Percent A1PI Eluted by Fraction, 2% Acetic Acid (A1PI [3]): 25%
Percent A1PI Eluted by Fraction, Flowthrough (A1PI [3]): 0%
Mass Protein per Eluate Fraction, 1M NaCl (A1PI [4]; 4° C.): 0.28 mg
Mass Protein per Eluate Fraction, 2% Ac. Acid (A1PI [4]; 4° C.): 0.46 mg
Mass Protein per Eluate Fraction, 3M NaCl (A1PI [4]; 4° C.): 0.04 mg
Percent Eluted by Fraction, 1M NaCl (A1PI [4]; 4° C.): 36%
Percent Eluted by Fraction, 2% Ac. Acid (A1PI [4]; 4° C.): 60%
Percent Eluted by Fraction, 3M NaCl (A1PI [4]; 4° C.): 5%
Percent Eluted by Fraction, Flow (A1PI [4]; 4° C.): 0%
Mass Protein per Eluate Fraction, 1M NaCl (A1PI [4]; 20° C.): 0.16 mg
Mass Protein per Eluate Fraction, 2% Ac. Acid (A1PI [4]; 20° C.): 0.30 mg
Mass Protein per Eluate Fraction, Flow (A1PI [4]; 20° C.): 0.41 mg
Percent Eluted by Fraction, 1M NaCl (A1PI [4]; 20° C.): 18%
Percent Eluted by Fraction, 2% Ac. Acid (A1PI [4]; 20° C.): 34%
Percent Eluted by Fraction, 3M NaCl (A1PI [4]; 20° C.): 0%
Percent Eluted by Fraction, Flow (A1PI [4]; 20° C.): 48%
Substance: YKFRFW
Percent Eluted by Fraction, 1M NaCl (Immunoglobulin A (IgA)): 33%
Percent Eluted by Fraction, 2% Acetic Acid (Immunoglobulin A (IgA)): 30%
Percent Eluted by Fraction, 3M NaCl (Immunoglobulin A (IgA)): 0%
Percent Eluted by Fraction, Flow (Immunoglobulin A (IgA)): 37%
Mass Protein per Eluate Fraction, 1M NaCl (Immunoglobulin A (IgA); [5]): 0.11 mg
Mass Protein per Eluate Fraction, 2% Acetic Acid (Immunoglobulin A (IgA); [5]): 0.10 mg
Mass Protein per Eluate Fraction, Flow (Immunoglobulin A (IgA); [5]): 0.13 mg
